The source of these data is PMC10663207.

The target in assay [1] is NMDA receptor subunit GluN2A (rat (endogenous in primary cortical neurons)) (UniProt Q00959). Description: co-IP; precleared lysates (700 µg) of rat primary cortical neurons incubated overnight with protein G-agarose carrying anti-GluN2A or anti-GluN2B; blots for STIM1 and STIM2; control neurons and neurons treated with 50 µM NMDA and 100 µM glycine for 15 min; bands normalised to the precipitated subunit.

For assay [2], the target named is NMDA receptor subunit GluN2B (rat (endogenous in primary cortical neurons)) (UniProt Q00960). Described as above.
UniProt Q00960, sequence (Q00960 27-1482): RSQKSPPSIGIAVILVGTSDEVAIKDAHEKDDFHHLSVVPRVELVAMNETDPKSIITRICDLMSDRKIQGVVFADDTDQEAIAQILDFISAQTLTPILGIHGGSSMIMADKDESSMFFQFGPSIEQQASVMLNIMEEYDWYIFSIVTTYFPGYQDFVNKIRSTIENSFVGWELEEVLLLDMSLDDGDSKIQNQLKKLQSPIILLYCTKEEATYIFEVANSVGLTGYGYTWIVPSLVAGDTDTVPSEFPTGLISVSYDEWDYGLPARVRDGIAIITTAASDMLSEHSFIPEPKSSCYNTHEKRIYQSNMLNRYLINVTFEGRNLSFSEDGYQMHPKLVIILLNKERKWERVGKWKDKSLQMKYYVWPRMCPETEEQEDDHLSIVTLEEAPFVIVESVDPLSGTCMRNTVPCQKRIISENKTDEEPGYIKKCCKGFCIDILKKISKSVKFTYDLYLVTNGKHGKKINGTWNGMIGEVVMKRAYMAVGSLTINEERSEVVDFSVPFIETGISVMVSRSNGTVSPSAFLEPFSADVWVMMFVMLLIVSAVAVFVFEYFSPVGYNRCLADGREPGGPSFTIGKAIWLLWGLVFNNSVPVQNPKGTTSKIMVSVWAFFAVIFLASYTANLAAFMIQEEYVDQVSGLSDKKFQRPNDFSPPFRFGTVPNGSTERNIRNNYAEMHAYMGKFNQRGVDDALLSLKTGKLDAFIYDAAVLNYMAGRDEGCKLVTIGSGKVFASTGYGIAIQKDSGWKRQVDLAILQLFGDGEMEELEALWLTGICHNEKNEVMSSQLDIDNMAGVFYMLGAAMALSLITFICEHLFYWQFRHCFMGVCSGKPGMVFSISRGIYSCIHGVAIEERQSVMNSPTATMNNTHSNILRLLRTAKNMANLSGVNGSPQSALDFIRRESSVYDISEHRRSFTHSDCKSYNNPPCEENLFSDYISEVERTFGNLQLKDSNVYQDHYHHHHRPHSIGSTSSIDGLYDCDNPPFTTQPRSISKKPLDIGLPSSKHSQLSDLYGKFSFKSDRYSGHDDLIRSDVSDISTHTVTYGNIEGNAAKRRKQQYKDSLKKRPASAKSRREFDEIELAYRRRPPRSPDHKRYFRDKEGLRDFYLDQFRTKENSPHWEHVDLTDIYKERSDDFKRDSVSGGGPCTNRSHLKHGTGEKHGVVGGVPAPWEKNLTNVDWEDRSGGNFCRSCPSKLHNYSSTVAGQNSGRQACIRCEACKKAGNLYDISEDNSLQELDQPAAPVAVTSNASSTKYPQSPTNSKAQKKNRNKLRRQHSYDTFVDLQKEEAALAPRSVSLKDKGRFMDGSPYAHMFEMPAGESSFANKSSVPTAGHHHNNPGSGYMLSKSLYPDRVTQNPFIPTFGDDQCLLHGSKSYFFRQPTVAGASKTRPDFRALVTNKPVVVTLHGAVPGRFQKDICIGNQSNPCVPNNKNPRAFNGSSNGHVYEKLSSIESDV

UniProt Q00959, sequence (Q00959 23-1464): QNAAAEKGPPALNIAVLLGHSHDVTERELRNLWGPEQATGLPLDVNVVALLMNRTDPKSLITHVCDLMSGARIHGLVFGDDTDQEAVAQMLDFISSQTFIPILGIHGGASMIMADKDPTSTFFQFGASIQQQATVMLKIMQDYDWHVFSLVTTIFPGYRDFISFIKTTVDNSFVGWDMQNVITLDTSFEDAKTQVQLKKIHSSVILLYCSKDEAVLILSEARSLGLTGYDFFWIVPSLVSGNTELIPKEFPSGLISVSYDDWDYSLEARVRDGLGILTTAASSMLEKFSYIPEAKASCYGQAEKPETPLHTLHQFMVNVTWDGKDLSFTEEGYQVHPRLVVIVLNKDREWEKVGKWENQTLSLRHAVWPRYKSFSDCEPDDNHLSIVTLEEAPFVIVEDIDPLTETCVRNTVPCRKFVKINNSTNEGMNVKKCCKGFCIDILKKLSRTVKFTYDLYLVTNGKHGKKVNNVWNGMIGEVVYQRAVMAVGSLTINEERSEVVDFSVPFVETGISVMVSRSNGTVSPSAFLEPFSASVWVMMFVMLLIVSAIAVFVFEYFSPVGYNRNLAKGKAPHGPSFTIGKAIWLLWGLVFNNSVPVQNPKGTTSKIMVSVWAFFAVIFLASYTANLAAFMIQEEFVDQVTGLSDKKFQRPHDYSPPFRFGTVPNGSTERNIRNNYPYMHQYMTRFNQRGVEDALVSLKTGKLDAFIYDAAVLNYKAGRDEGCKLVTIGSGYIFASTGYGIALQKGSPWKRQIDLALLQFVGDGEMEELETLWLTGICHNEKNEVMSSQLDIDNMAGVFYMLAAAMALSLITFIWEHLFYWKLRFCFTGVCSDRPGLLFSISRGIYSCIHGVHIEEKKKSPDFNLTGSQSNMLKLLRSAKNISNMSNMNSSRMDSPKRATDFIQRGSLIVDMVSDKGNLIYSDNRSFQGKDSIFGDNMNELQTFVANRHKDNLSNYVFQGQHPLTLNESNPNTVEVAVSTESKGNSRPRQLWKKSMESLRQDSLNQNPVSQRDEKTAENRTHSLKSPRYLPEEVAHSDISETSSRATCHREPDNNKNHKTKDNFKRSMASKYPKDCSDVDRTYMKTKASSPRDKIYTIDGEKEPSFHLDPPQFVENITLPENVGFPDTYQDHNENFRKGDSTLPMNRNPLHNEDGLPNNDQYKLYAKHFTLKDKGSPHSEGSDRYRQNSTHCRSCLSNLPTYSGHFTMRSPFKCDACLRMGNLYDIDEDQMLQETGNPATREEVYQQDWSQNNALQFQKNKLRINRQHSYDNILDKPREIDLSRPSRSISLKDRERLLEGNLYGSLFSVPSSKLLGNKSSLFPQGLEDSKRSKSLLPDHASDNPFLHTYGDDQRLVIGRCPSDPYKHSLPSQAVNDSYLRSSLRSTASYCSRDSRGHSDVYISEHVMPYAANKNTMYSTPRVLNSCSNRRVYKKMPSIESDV

Regarding “stromal interaction molecule 2 (STIM2) (natural protein)”, the results for the co-IP band after NMDA and glycine treatment, percent of control neurons in assay [1] and in assay [2] were 340% and 204%, respectively.
